# Test results published in the RNAGym collection of RNA variant scans (doi:10.7554/elife.80360).
# B1: HDV Ribozyme (parent)
# chain: GGCCGGCAUGGUCCCAGCCUCCUCGCUGGCGCCGGCUGGGCAACAUUCCGAGGGGACCGUCCCCUCGGUAAUGGCGAAUGGGACCCA
# Variants of: B1
# Assay: self-cleavage, relative activity (ratio to wild type); higher = more cleavage; co-transcriptional
row,Variant,self-cleavage
1,G53C C58U,1.14
2,G53C C58A,1.06
3,G54A A71U,0.912
4,G54C C57A,0.937
5,G54C C57G,1.05
6,G53C G73U,0.369
7,G53C G73A,0.782
8,G53C G73C,0.36
9,G54U C64G,0.831
10,G54U A87U,0.973
11,G54U A87G,0.933
12,G54U A87C,1.06
13,G55C C75G,0.208
14,G54U A77C,0.415
15,G54C A71U,0.731
16,G55A C66A,1.07
17,G55A C66U,1.11
18,G54C C75G,0.151
19,G54C C75A,0.138
20,G54C C75U,0.358
21,G53U G81U,0.28
22,G54A G82A,0.208
23,G54A G82C,0.282
24,G54U G55C,0.953

row,Variant,self-cleavage
1,G53U G76C,1.11
2,G54C A77C,0.426
3,G54C A77U,0.695
4,G54U U72C,0.554
5,G54U U72A,0.614
6,G54U U72G,0.919
7,G54C G81U,0.19
8,G54C G81C,0.196
9,G54C G81A,0.393
10,G55A G73A,0.812
11,G55C C57U,0.976
12,G54A G68A,0.895
13,G54A G68U,0.641
14,G54A C63G,0.816
15,G54A C63U,1.04
16,G53U G74U,0.701
17,G53U G74A,0.646
18,G53U G74C,0.202
19,G54U G80C,0.159
20,G53C G82C,0.0923
21,G53C G82U,0.358
22,G53C G82A,0.383
23,G55C C62A,1.04
24,G53U A78G,0.739

row,Variant,self-cleavage
1,G53U A78C,0.229
2,G54A G73A,0.394
3,G54A G73C,0.527
4,G54A G73U,0.211
5,G55A A70G,0.89
6,G53U A77C,0.453
7,G53U A77U,0.623
8,G55A C58A,0.978
9,G55A C58U,1.07
10,G53U C75G,0.214
11,G54C C61U,1.01
12,G54C C61A,0.926
13,G54U C57G,1.1
14,G53C U60A,1.15
15,G53U C63G,1.02
16,G53U C63U,0.895
17,G55C A83G,0.767
18,G53U C58U,1.03
19,G53U C58G,0.939
20,G53U C58A,1.02
21,G54U C58U,0.94
22,G54C G55U,1.05
23,G54C G55C,0.981
24,G54A G67C,0.591

row,Variant,self-cleavage
1,G55C C86A,1.03
2,G53U U60C,0.923
3,G54C A87U,0.901
4,G55A U69G,0.942
5,G55A U69C,0.918
6,G54A C62G,1.06
7,G54A C62A,0.917
8,G54A C62U,1.05
9,G54U G82C,0.237
10,G54U G82U,0.432
11,G54U G81U,0.349
12,G54U G81C,0.299
13,G54U G81A,0.306
14,G54C G73A,0.565
15,G54C A56U,1.06
16,G54C A56C,0.864
17,G55A G68U,0.965
18,G55A U72A,0.917
19,G53U U69C,0.931
20,G53U U69A,0.969
21,G53U U69G,0.964
22,G55C C64U,1.12
23,G55C C64G,0.953
24,G53U C61A,1.02

row,Variant,self-cleavage
1,G53U G59A,1.14
2,G53U G59U,0.899
3,G53U G59C,1.23
4,G55A A56U,0.926
5,G54A C86U,0.992
6,G54A C86G,1.07
7,G54A C86A,0.988
8,G54C G67C,0.627
9,G54C G67A,0.819
10,G54C G67U,0.783
11,G54U C75U,0.189
12,G54U C75A,0.241
13,G55A C84A,0.992
14,G55A C84G,0.635
15,G54U A70U,0.997
16,G55A A77U,0.694
17,G55A A77G,0.991
18,G53U A70G,1.08
19,G53U A70U,0.739
20,G54U G59C,1.03
21,G54A G81C,0.26
22,G54A G81A,0.511
23,G53U G82U,0.427
24,G55A U65G,1.09

row,Variant,self-cleavage
1,G54A A78U,0.245
2,G53U U72A,0.798
3,G53U U72C,0.563
4,G53U U72G,0.554
5,G53C G74C,0.19
6,G53C G74U,0.379
7,G54U G73U,0.364
8,G54U G73C,0.297
9,G54U C63A,0.901
10,G54U C63G,0.749
11,G53C U65G,0.688
12,G53C G67A,0.723
13,G53C G67U,0.631
14,G53C G67C,0.427
15,G54A U72A,0.707
16,G54A C61G,0.881
17,G54A C61U,1.04
18,G54C G82C,0.397
19,G54C C64U,0.82
20,G54A A77U,0.634
21,G54A A77G,0.614
22,G54U A78G,0.534
23,G54U A78U,0.302
24,G54A C64U,0.696

row,Variant,self-cleavage
1,G54A C64A,0.453
2,G53U G67A,0.855
3,G54U U79G,0.266
4,G55C C85G,1.15
5,G55A G80C,0.138
6,G55A G80A,0.369
7,G55C A70U,0.96
8,G55C A70C,0.932
9,G53C G54U,1.08
10,G53C G54C,0.706
11,G54U C85G,0.888
12,G54C C84A,0.598
13,G54C C84G,0.917
14,G54C A83G,0.905
15,G54A G76U,0.799
16,G54A G76A,0.923
17,G54A A87G,0.877
18,G53C C84U,0.712
19,G54U G67U,0.774
20,G54U G67C,0.694
21,G53C U79G,0.443
22,G53C U79A,0.538
23,G55C G67C,1.06
